First the molecules themselves.
T1: FcgRIIb (human, UniProt P31994 43-217)
T1 construct: extracellular domain; also called FcγRIIb
T1 sequence (looked up): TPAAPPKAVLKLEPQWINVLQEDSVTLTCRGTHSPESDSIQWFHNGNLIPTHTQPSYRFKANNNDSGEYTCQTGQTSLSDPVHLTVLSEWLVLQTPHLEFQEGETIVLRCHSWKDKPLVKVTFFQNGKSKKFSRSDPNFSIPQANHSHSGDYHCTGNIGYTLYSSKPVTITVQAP

T2: FcgRIIaR (human, UniProt P12318 34-217)
T2 construct: extracellular domain; also called FcγRIIa R type; FcγRIIa (R type)
T2 sequence (looked up): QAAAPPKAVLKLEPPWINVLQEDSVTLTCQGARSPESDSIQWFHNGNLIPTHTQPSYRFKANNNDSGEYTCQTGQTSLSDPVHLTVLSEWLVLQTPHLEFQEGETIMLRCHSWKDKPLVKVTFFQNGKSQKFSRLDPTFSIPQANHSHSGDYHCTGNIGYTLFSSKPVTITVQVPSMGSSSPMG

B1: IL6R-P744/IL6R-L (antibody, human IgG1, kappa)
heavy: QVQLQESGPGLVKPSETLSLTCAVSGHSISHDHAWSWVRQPPGEGLEWIGFISYSGITNYNPSLQGRVTISRDNSKNTLYLQMNSLRAEDTAVYYCARSLARTTAMDYWGEGTLVTVSSASTKGPSVFPLAPSSKSTSGGTAALGCLVKDYFPEPVTVSWNSGALTSGVHTFPAVLQSSGLYSLSSVVTVPSSSLGTQTYICNVNHKPSNTKVDKKVEPKSCDKTHTCPPCPAPELLGGDSVFLFPPKPKDTLMISRTPEVTCVVVDVSHEDPEVKFNWYVDGVEVHNAKTKPREEQYNATYRVVSVLTVLHQDWLNGKEYKCAVSNKALPAPIEKTISKAKGQPREPQVYTLPPSRDELTKNQVSLTCLVKGFYPSDIAVEWESNGQPENNYKTTPPVLDSDGSFFLYSKLTVDKSRWQQGNVFSCSVMHEALHNHYTQKSLSLSP
light: not shown
B2: IL6R-P749/IL6R-L (antibody, human IgG1, kappa)
heavy: B1 heavy with G239Q, F243M, H270P, Y298E, A300S, A324E, A332H
light: not shown
B3: IL6R-P753/IL6R-L (antibody, human IgG1, kappa)
heavy: B1 heavy with L237F, G239Q, F243M, H270P, Y298E, A300S, A324E, S326H
light: not shown
B4: IL6R-P747/IL6R-L (antibody, human IgG1, kappa)
heavy: B1 heavy with L237F, G239Q, F243M, Y298E, A300S, A324E
light: not shown
B5: IL6R-P754/IL6R-L (antibody, human IgG1, kappa)
heavy: B1 heavy with G239Q, F243M, H270P, Y298E, A300S, S326H, A332H
light: not shown
B6: IL6R-P748/IL6R-L (antibody, human IgG1, kappa)
heavy: B1 heavy with G239Q, F243M, H270P, Y298E, A300S, A332H
light: not shown
B7: IL6R-P750/IL6R-L (antibody, human IgG1, kappa)
heavy: B1 heavy with L237F, G239Q, F243M, H270P, Y298E, A300S
light: not shown
B8: IL6R-P752/IL6R-L (antibody, human IgG1, kappa)
heavy: B1 heavy with L237F, G239Q, F243M, H270P, Y298E, A300S, S326H
light: not shown
B9: IL6R-P751/IL6R-L (antibody, human IgG1, kappa)
heavy: B1 heavy with L237F, G239Q, F243M, H270P, Y298E, A300S, A324E
light: not shown
B10: IL6R-P746/IL6R-L (antibody, human IgG1, kappa)
heavy: B1 heavy with L237F, G239Q, F243M, Y298E, A300S
light: not shown
B11: IL6R-P745/IL6R-L (antibody, human IgG1, kappa)
heavy: B1 heavy with A324E
light: not shown

Numbering of substitutions follows the chain as printed.

T3 sequence (P02745 23-245 limits assumed, chain 1 of 3): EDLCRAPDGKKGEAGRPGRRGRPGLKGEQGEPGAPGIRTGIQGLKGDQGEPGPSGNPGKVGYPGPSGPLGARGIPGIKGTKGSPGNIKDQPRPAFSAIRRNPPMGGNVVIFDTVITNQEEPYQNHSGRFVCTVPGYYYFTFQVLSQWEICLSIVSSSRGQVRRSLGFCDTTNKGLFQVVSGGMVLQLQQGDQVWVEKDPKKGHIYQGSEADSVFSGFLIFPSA
T3 sequence (P02746 28-253 limits assumed, chain 2 of 3): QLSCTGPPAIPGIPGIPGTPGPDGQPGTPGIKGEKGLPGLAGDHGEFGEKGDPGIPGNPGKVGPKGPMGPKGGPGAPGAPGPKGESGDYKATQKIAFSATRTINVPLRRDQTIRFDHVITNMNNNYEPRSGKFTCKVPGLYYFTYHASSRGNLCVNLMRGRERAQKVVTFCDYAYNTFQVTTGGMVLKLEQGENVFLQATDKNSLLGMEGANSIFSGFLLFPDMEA
T3 sequence (P02747 29-245 limits assumed, chain 3 of 3): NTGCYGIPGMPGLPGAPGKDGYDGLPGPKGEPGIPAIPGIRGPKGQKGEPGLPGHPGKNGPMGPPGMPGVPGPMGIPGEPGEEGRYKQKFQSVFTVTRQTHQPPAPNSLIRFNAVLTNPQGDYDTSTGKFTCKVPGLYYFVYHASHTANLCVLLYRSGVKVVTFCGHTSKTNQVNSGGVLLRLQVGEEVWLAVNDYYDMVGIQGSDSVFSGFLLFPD

The first test has as its target T1, FcgRIIb. The test can be described thus: SPR, amount bound per captured antibody.
With B1, the “Relative FcgRIIb-binding Activity” value was 81.4 IL6R-G1d/IL6R-L=100.

With B2, the “Relative FcgRIIb-binding Activity” value was 73.9 IL6R-G1d/IL6R-L=100.

Turning to B3, the “Relative FcgRIIb-binding Activity” value is 103 IL6R-G1d/IL6R-L=100.

Turning to B4, the “Relative FcgRIIb-binding Activity” value amounted to 98.1 IL6R-G1d/IL6R-L=100.

Turning to B5, the “Relative FcgRIIb-binding Activity” value amounted to 85.8 IL6R-G1d/IL6R-L=100.

Consider B6, for which the “Relative FcgRIIb-binding Activity” value stood at 42.7 IL6R-G1d/IL6R-L=100.

Take B7: the “Relative FcgRIIb-binding Activity” value was 48.1 IL6R-G1d/IL6R-L=100.

As for B8, the “Relative FcgRIIb-binding Activity” value worked out at 62.9 IL6R-G1d/IL6R-L=100.

B9: the “Relative FcgRIIb-binding Activity” value turned out to be 72.5 IL6R-G1d/IL6R-L=100.

As to B10, the “Relative FcgRIIb-binding Activity” value turned out to be 57.5 IL6R-G1d/IL6R-L=100.

In the case of B11, the “Relative FcgRIIb-binding Activity” value was 95.4 IL6R-G1d/IL6R-L=100.

A further test deals with T2, FcgRIIaR. As to the kind of experiment: SPR, amount bound per captured antibody. For orientation: In SPR one partner is held on a chip, and binding of the other changes the refractive index at the surface.
B1: the “Relative FcgRIIaR-binding Activity” value was found to be 11.1 IL6R-G1d/IL6R-L=100.

Consider B2, for which the “Relative FcgRIIaR-binding Activity” value was 6.8 IL6R-G1d/IL6R-L=100.

With B3, the “Relative FcgRIIaR-binding Activity” value was determined as 10.4 IL6R-G1d/IL6R-L=100.

With B4, the “Relative FcgRIIaR-binding Activity” value worked out at 10 IL6R-G1d/IL6R-L=100.

For B5, the “Relative FcgRIIaR-binding Activity” value worked out at 5.6 IL6R-G1d/IL6R-L=100.

Take B6: the “Relative FcgRIIaR-binding Activity” value was 5.1 IL6R-G1d/IL6R-L=100.

For the molecule B7, the “Relative FcgRIIaR-binding Activity” value came out at 6.1 IL6R-G1d/IL6R-L=100.

For the molecule B8, the “Relative FcgRIIaR-binding Activity” value amounted to 7.2 IL6R-G1d/IL6R-L=100.

Take B9: the “Relative FcgRIIaR-binding Activity” value came out at 7.4 IL6R-G1d/IL6R-L=100.

With B10, the “Relative FcgRIIaR-binding Activity” value worked out at 7 IL6R-G1d/IL6R-L=100.

Regarding B11, the “Relative FcgRIIaR-binding Activity” value was found to be 13.7 IL6R-G1d/IL6R-L=100.

The next test addresses T3, human complement C1q (human, UniProt P02745 23-245; P02746 28-253; P02747 29-245).
T3 construct: Bought (PROSPEC or Calbiochem); also called human C1q
The test can be described thus: SPR, C1q bound per antibody captured on Protein L. On the procedure:
The interaction between an antibody and human C1q was analyzed using Biacore T200 (GE Healthcare). HBS-EP+ (GE Healthcare) was used as the running buffer, and the measurement temperature was set at 25° C. Chips produced by immobilizing Protein L (ACTIGEN or BioVision) onto Series S sensor Chip CM4 (GE Healthcare) by amine coupling were used.
The antibodies of interest were captured onto these sensor chips, and allowed to interact with human complement C1q (PROSPEC or Calbiochem) diluted in the running buffer. The amount of antibody binding was determined, and comparisons were made among the antibodies. However, since the amount of C1q bound depends on the amount of captured antibodies, corrected values obtained by dividing the amount of C1q bound by the amount of each antibody captured were compared. Furthermore, by reaction with 10 mM glycine-HCl, pH 1.5, the antibodies captured onto the sensor chips were washed, and the sensor chips were recycled and reused.
In the case of B1, the “Amount of C1q-binding when that for G1d is Defined as 100” value (from here on “Amount of C1q-binding when that”) was 13.6 G1d=100.

Consider B2, for which the “Amount of C1q-binding when that” value was 13.8 G1d=100.

On to B3, for which the “Amount of C1q-binding when that” value was 14 G1d=100.

Take B4: the “Amount of C1q-binding when that” value amounted to 13.7 G1d=100.

In the case of B5, the “Amount of C1q-binding when that” value is 1.8 G1d=100.

With B6, the “Amount of C1q-binding when that” value came to 1.4 G1d=100.

With B7, the “Amount of C1q-binding when that” value was found to be 1.2 G1d=100.

In the case of B8, the “Amount of C1q-binding when that” value is 1.1 G1d=100.

Take B9: the “Amount of C1q-binding when that” value amounted to 13.9 G1d=100.

On to B10, for which the “Amount of C1q-binding when that” value amounted to 1.4 G1d=100.

Take B11: the “Amount of C1q-binding when that” value was determined as 20.9 G1d=100.

For the origin of these results see patent publication US20220411483A1 (Chugai, published 2022).
